Reference: patent US7667021 (dated 2010)
Each block holds one binder with its values, some of them ahead of it.

What was measured:
IGFR1 [1] = biological target: IGFR1 (human); test: SPR, 25C
IGFR1 [2] = biological target: IGFR1 (human); test: SPR, 37C

Chain of IGFR1 (human) (B1B5Y2 whole entry): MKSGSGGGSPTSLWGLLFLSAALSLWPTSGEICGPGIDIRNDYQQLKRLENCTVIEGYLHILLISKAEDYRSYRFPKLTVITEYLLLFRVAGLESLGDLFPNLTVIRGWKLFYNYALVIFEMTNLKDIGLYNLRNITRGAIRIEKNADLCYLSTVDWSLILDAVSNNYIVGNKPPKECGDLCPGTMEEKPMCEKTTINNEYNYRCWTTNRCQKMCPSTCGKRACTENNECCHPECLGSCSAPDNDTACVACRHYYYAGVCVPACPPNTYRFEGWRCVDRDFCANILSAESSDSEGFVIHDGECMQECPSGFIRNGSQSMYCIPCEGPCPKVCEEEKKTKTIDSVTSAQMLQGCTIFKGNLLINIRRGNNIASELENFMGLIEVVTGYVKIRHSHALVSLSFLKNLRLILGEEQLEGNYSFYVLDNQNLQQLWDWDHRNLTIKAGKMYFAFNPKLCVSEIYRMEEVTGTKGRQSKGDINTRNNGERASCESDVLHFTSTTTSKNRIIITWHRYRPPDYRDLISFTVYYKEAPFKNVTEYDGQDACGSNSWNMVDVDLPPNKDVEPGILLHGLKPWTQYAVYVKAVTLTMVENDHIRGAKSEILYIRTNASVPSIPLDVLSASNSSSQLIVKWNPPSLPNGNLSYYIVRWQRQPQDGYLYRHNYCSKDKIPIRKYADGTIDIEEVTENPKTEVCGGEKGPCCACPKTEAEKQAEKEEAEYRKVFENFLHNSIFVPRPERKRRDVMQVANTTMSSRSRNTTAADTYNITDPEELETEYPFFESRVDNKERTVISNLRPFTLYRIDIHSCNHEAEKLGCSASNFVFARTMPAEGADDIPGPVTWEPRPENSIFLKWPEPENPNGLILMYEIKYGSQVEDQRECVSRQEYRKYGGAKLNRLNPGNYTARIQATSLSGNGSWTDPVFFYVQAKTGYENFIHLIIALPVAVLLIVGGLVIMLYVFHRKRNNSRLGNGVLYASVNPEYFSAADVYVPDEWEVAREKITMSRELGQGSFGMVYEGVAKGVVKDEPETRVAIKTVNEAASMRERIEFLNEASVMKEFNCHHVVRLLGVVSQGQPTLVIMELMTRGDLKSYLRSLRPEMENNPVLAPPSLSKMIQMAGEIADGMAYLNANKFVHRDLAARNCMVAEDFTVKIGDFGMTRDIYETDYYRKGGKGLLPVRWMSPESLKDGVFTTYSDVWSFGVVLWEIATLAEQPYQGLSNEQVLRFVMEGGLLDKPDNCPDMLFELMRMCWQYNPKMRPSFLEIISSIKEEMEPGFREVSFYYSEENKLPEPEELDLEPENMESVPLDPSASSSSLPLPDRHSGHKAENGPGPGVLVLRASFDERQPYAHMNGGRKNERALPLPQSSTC

Kd (IGFR1 [1]): 860 pM
B1: 1H3 (antibody, V domains shown)
VH: EVQLVQSGGGLVLPGGSLRLSCAGSGFTFSNYAMHWIRQAPGKGLEWVSAIGAGGDTYYADSVKGRFTISRDNAKDSLYLQMNSLRAEDMAVYYCARGRHRNWYYYNKDYWGQGTLVTVSS
VL: EIVLTQSPATLSLSPGERATLSCRASQSVSSFLAWYQQKPGQAPRLLIYDASNRAPGIPARFSGSGSGTDFTLTISSLEPEDFAVYYCQQRSNWPRWTFGQGTKVEIKR

Kd (IGFR1 [1]): 59.2 pM
Kd (IGFR1 [2]): 72.2 pM
B2: 19D12 (antibody, V domains shown)
VH: EVQLVQSGGGLVHPGGSLRLSCAASGFTFSSFAMHWVRQAPGKGLEWISVIDTRGATYYADSVKGRFTISRDNAKNSLYLQMNSLRAEDMAVYYCARLGNFYYGMDVWGQGTTVTVSS
VL: EIVLTQVPDFQSVTPKEKVTITCRASQSIGSSLHWYQQKPDQSPKLLIKYASQSLSGVPSRFSGSGSGTDFTLTINSLEAEDAAAYYCHQSSRLPHTFGGGTKVEIKR

Kd (IGFR1 [1]): 44.8 pM
Kd (IGFR1 [2]): 55.7 pM
B3: 15H12 (antibody, V domains shown)
VH: B2 VH
VL: B2 VL
